Where no end group is shown, it is not given here. [ ]: non-standard residue; d: D form.
B1: α-MSH analogue #1: Ac-(Ac-Lys-Lys-)Lys-Ser-Tyr-Ser-Met-Glu-His-Phe-Arg-Trp-Gly-Lys-Pro-Val-NH2 (Ac-(Ac-Lys-Lys-)Lys-SEQ ID NO:2) (peptide)
peptide: Ac-KSYSMEHFRWGKPV-NH2
chain: Ac-Lys-Lys
modifications: also: bond at chain A 1 to a chain's C-terminus via isopeptide: branch C-terminus to Lys1 ε-amine
notes: Branched peptide
B2: γ-MSH analogue #2: Ac-(Ac-Lys-Lys-)Lys-Tyr-Val-Met-Gly-His-Phe-Arg-(D-Trp)-Asp-Arg-Phe-Gly-NH2 (D-Trp version of SEQ ID NO:8) (peptide)
peptide: Ac-KYVMGHFR[dW]DRFG-NH2
chain: Ac-Lys-Lys
modifications: also: bond at chain A 1 to a chain's C-terminus via isopeptide: branch C-terminus to Lys1 ε-amine
notes: Branched peptide; the second chain is the side branch on Lys1

Columns and labels:
[1] = biological target: T1, human melanocortin receptor type 1 (MC1r) (human, UniProt Q01726 1-317); assay: cell-based or functional assay
T1 sequence (Q01726 whole entry): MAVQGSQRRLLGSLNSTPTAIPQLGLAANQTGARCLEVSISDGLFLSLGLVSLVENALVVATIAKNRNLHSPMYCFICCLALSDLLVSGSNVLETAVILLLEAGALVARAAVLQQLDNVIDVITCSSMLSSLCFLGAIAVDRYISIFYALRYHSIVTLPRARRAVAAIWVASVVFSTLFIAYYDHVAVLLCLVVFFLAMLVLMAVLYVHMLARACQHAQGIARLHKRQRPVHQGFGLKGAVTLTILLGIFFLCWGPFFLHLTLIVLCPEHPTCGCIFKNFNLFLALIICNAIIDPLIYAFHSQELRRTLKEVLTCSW

[2] = biological target: T1, human melanocortin receptor type 1 …

| Binder | EC50, cAMP production [1] | IC50 [2] |
| --- | --- | --- |
| B1 | 0.2 nM | 0.0645 nM |
| B2 | – | 0.606 nM |
